# Reference: the DeepSol protein solubility set
# Assay: soluble on expression in E. coli; label from the status in PepcDB or PDB records
row,Sequence,soluble on expression in E. coli
1,MLSINPNEQTEKDNYKLLTGSIIPRPVAFVTSVTKEGVLNGAPYSYFNIVAANPPLISVSVQRKAGERKDTSRNAIEKGEFVVHISDESYVAAINETAANLPPNESEIELAKLTPIESEVISVPGVKEANIRMECVLERAIPLGGTEDSPACDLLIGRVVRFHVAEHLYEKGRIHAEGLKPISRLAGHNYAKLGEQFELVRPI,soluble
2,MLSTVFLLATLAASAAADGYSCARNTLINPPQDLSKPYYYPETWRENMEPPQYAPNQKCNWKINVPQGMYATVIFYKKTKYEIGIQCAYPGKDLEYINDYEQSPYIFTSPQFQVDLKVGDKPGAFSFKVVWSKYPPGSAMNIELDGIHSISGVASSFYTTYTAINQVMIVGFSVPDVDTNLLRQSAIYDGDSVNAKFLGNLFDALEGQIVSTGNKLTIYTFGLENQVDNTLFMGLDTKAAGDIEQYTGLNCPVDRTRGCSIILHSYFYATAEARISRQPDYLMLPDSFPYNATLKIYGETLQDSSLFAAVNKSNYQTMFPMKVTNSLKIYHLDHDIVSIDVTNNADEAKWSTVYDGRNIKVQSMDYGRTSFYQDTMETFTTEPNTQMYFKFNVKYFDVNGPTSLAIKVYNNAKIVYSETYTATNLPTPYNVRVYGDKMDINYQTFGNYTQGFEVNIVTTKNG,not soluble
3,MLSVENLKVVYRGVILALDGVSLEVGEGEAVALLGPNGAGKSSLVRTIAGLLPKFEGRVLDGKVRLFGREATHLDPVGISRLGLTAILEGRPLFRYLTPVENLMAAGHRLPPKALKEGMEEVFARFPRLYERRHEQAGYLSGGEQQMLLLGMALLTRPRLLVVDEPSLGLAPKLVGEVMQTLDALRREKGLSLLLVEQNARAALGVVDRVYVLERGRVVFEGSAKEAMEDQDVMEFYLGKEEVGFRQARRYRRRKRWV,soluble
4,MLSYHTDIPTDLPLLRQAVEAIRREESGGAVPDSDRPRVIYEARNRLYAIRTAQGEQVVKSFRIPIAIQRVVYSFFRPSKAARSYRNAIRLGRCGIGTPRPSGYAIEREKGLLCRSYYVCESMHDCRDIRLSMQGVEGGEALLRALAGFIARMHRAGIHHIDLSPGNVLYRTDEKGEYSFYLIDLNRMKFYDKPIVGRKAYANFARLSFCPAVSKQLAEYYAEAQGLNTDGVVQGVQSESDRFFRSKVRKYARKALVREQKRMSRSAFRRAYIRYRSVRLIRKLTGCTRLFRIENDLYTSYLEVGDLRHTLKRAEGYSSPKNVQ,not soluble
5,MLTEDDIKEIRENREMIEQGRREPVTLYIKGVSEKDPITGEEIQGEPRKENVQLVWKKFTSVEKTKFADLDVKKGEALVTFPLNVDLENIEKIERKGVFYVIELIDERGLGGVNRREVIVKRVI,not soluble
6,MLTEQEKDIIKQTVPLLKEKGTEITSIFYPKMFKAHPELLNMFNQTNQKRGMQSSALAQAVMAAAVNIDNLSVIKPVIMPVAYKHCALQVYAEHYPIVGKNLLKAIQDVTGLEENDPVIQAWAKAYGVIADVFIQIEKEIYDQMMWIGFKPFKITNIKQESEDIKSFTVETEEYDFSEFTPGQYITVDVSSDKLPYRAKRHYSIVSGEKNHLTFGVKRDVTTEHEGEVSTILHDEIKEGDMINLAAPVGGFVLENTTEPQLFLGSGIGVTPLVAMYEAASAKGLDTQMVQVAENEQHLPFKDNFNSIASHHDNAKLYTHLKDKQGYIGAEELQVFLANKPEIYICGGTKFLQSMIEALKSLNYDMDRVHYETFIPRLSVAV,not soluble
7,MLTNEQLAALRSRLLDMKRETEDRLKQNDHFGMIRSHAHDAVGELASYDNHPADEATELYEREKDLALKEHAERELREIERALGAIADGTYGTCRVCGRPIPYERLEALPTTLYCREHSPDQTVSQKRPLEEGVLMPPFGKFDFDDRAESVAYDAEDAWQEVARYGTSDTPSDLGKNVDSYSEVYAESEENVGYVEDLENFAAVDLHGQHVRVYPTREHELLENILDDEGIMSNIGDLPAYEKDPYTSKDSYRRYDERPSQQHFGETTP,not soluble
8,MLTSEIAACCKKLRLSRNIVEMSGKIQADNHQEYLLKLLKSEIIHREKTRNAKLLRKAGFYTIKTFESFRFDEVTLPGDITPEYLKECEFVKNKTNIVMYGNVGTGKTHLSIALGVEACKRGYEVRFFRTSALVNKLAEEKRVGTLSSFLKKLNKAELLICDEWRYVPLDRIGAQLLFEVISERYENKAVIINTNIEFSRWVNIFYDEQMTGAIVDRILHHCHLLLFFGQSNRMRESRLNT,not soluble
9,MLVEEAPVDADLGAAVTRLRALALEALCAGSLSAEQVLDHTRPAALALALAVCTPAEYARPWFRRATGDVRVLLARRLAEELGEDHVRWAAAIDLSGSFAGSVGELLHSDEAPGSVHRFLHPHRSSHATQNLLLALAPRDVAARYLAGLVETRRPNVVAYKMDWMLRSGPLSRPLVARGVGGSVGGQRELLGNDLCPDFVLEQVHGGYARHVMYREIIPPKVLKRAFRAYAASEPAHEVRAWAVSLLGERTDRLMDLAWSLTDAPTLLHRLVAAVLDRADPATLTCLYGALAEAAGPEPVWALDLERAGSLDAVQPAVRASMAAGSAEPLVEAAKRIPRRHWLDVLDEEAFGGQMLRDEAELDRTGHFPLEALVAARLDGRPERWAEVARQVAGGRMPVEAVVEGVVAAAIEEIGESAAKTAPETPTEAAPETTAEAAPQTPAEAAPQTPANAAPQTPTKPAPQPPAASPIAAPPAHAAPSASTT,not soluble
10,MLVFISNSRLSESEVQKLRDKHLIDDFIQRENKGYDFAAWHDGMEFVGFENLKQYDSVTVMNDTCFGPLWDMAPIYDNYESNPNVDFWGMTNHQGIKAGDIYIHEHLQSYFISFKKRLVESSVFQKFWKSVESFEDVQKVIDNYETLYTKKFRDAGFNYESILNTIPLNDKFFHSNFTIHYPHVLLDTGVPFIKVKTFDLTQHLAPYLLKEIEKRTDYPVELILSHMSDMSLPTPPYLLDRKVIEKSSQTYSDTKKIAVHLHTYYVDLLEDFLKQFENFHFTYDLFLTTDSEDKKAEIQSILDKNGKVARIFITGNRGRDVIPMLKLKDELSAYDYIGHFHTKKSPEYPYWVGDSWRNELFSMLIQPADNIIANLERDDRLGLVIADIPSFFRYTKIVDPWNENRFAEGMNDLWERMDLGRDIDFDKMNTFIMSYGTFIWFKYDALKPLFDLDLQDEEIPAEPIPQHTILHSIERILVYLAWARRYDYAIAKNDIYITPFVDNVVLNIRPDTLPNTYINFDNIGGIKGALKYIIVGPLEHHHHHH,not soluble
11,MLVLFEVAAGYAVFKLSNEKKLKNVDNIWEEFSTAEKAQENLQLVSFKKFKTTAGAVEATSEITEGKLSKTLKKLLKSSVDETEKLAVGDAKLGNLIKEKLSLNCVHDSSINELMRGVRAHIEDLLAEHKEEMNAMNLAVAHSLARYKVKFNPEKIDTMIVQAVSLLDDLDKELNNYVMRVREWYGWHFPELGKTIQDHQAYAKIIKAIGMRQNCINTDLSSILPEELEEKVKEDAEISMGTDISDIDLIHIKGLCDQVIELSAYRAQLFDYLKNRMTALAPNLTVLLGELVGARLISHAGSLVSLAKAPASTIQILGAEKALFRALKTKKDTPKYGLIYHAQLITQAPPKVKGKMARKLAAKCSLATRIDALSDESATNEIGIECRAALENVLRTESERGPSKNKSFGSHRHDKYEFKSETYEYDASADTPASRKHKRFDDNEESTNAIKKMKIEEVKEEDEAEPEKKKKKKEKKAKKADTDSDEE,not soluble
12,MMCTKEFDYLNEANQATRFQNVWLPGRYTDCNHMKRKQEEVNGEENSTWRSSSSFQ,not soluble
13,MMDFEDFGNPLAGKPLSQADKAAAVLLAMGKGVAGKLLKFFTQHELQMIISSAQTLRVIPPDELAQIVAEFEDLFTEGTGLMDNAKAIESILEEGLTPEEVDSLLGRRAAFQAYEASIWDRLQEAEPEFVGKFLLREHPQTIAYILSMLPSSFGAKVLLTIPEEQRADIMNRTVNMKEVSPTAAQIIEKRVVNLINEIEAERNAGGSTKVADLMNELDKPQVDTLLSSLETLSKEAANKVKPKIFLFDDLMFMPQRSRVLLLNDVSADVLTMALRGATVEIKECVLSSISPRQRRMIESDLAVPQASLNTREVAIARRAVAQEAIRLANSGQIQLKDVAAEEQSAAA,not soluble
14,MMEMITIKPGKITVQANPNMPKEVAELFRKQHYEIVGRHSGVKLCHWLKKSLTEGRFCYKQKFYGIHSHRCLQMTPVLAWCTHNCIFCWRPMENFLGTELPQPWDDPAFIVEESIKAQRKLLIGYKGNPKVDKKKFEEAWNPTHAAISLSGEPMLYPYMGDLVEEFHKRGFTTFIVTNGTIPERLEEMIKEDKLPTQLYVSITAPDIETYNSVNIPMIPDGWERILRFLELMRDLPTRTVVRLTLVKGENMHSPEKYAKLILKARPMFVEAKAYMFVGYSRNRLTINNMPSHQDIREFAEALVKHLPGYHIEDEYEPSRVVLIMRDDVDPQGTGVEGRFIKHLEHHHHHH,not soluble
15,MMEYKIVENGLTYRIGNGASVPISNTGELIKGLRNYGPYEVPSLKYNQIALIHNNQFSSLINQLKSQISSKIDEVWHIHNINISEFIYDSPHFDSIKSQVDNAIDTGVDGIMLVLPEYNTPLYYKLKSYLINSIPSQFMRYDILSNRNLTFYVDNLLVQFVSKLGGKPWILNVDPEKGSDIIIGTGATRIDNVNLFCFAMVFKKDGTMLWNEISPIVTSSEYLTYLKSTIKKVVYGFKKSNPDWDVEKLTLHVSGKRPKMKDGETKILKETVEELKKQEMVSRDVKYAILHLNETHPFWVMGDPNNRFHPYEGTKVKLSSKRYLLTLLQPYLKRNGLEMVTPIKPLSVEIVSDNWTSEEYYHNVHEILDEIYYLSKMNWRGFRSRNLPVTVNYPKLVAGIIANVNRYGGYPINPEGNRSLQTNPWFL,soluble
16,MMFLRQEDFATVVRSTPLVSLDFIVENSRGEFLLGKRTNRPAQGYWFVPGGRVQKDETLEAAFERLTMAELGLRLPITAGQFYGVWQHFYDDNFSGTDFTTHYVVLGFRFRVSEEELLLPDEQHDDYRWLTSDALLASDNVHANSRAYFLAEKRTGVPGL,soluble
17,MMGFEWGFKPSSKITQSTVSSQGTGNVMIPTAGVKQKRRYANEEQEEEELPRNKNVMKYGGVSKRRPQPGSLIRGQPLPLQRGMELMNKNQLQQLLVDLMTKHPEIQQSVHTRVIGLDFSIQKCLDMLKQKSEAVYQSIPYNRSYESNKLDDYAFVRMKPQILEFLNCLVDFILDNIPPRLENLHASLKFLDICTELVIKLPRFELASNNYYYDKCIEQLSHVWCTLIEHVARDRIILLADNSSVWKSHMTRLQVYNEHSNGLLERPLQLFKSLDMGSPSAASSSTLSLQESIIYHHDTMTANENNNNSGSAATDSPFN,soluble
18,MMHFEVHGRTDAEAPTILLSSGLGGSSAYWLPQIEALSDHFRIVTYDHRGTGRTGGEVPTEGGISAMADDVLEIVSALNLEKFHFMGHALGGLIGLDIALRQPRLIDRLVLINAWSKADPHSGRCFDVRIELLEKSGVDAFVKAQPLFLYPAAWMSEHQERLARDDAHGVAHFQGKTNVLRRIAALRAFDIDARLGEIGNPVLVVATKDDLLVPYTRSLRLAEGLPQSELCLLDFGAHAVNITEPDLFNTRLLQFLLPADQT,not soluble
19,MMKEFTPAPDSASIVSVTDRVKPVALGMGVTSVHFLGDRAAFVGGEENVAFVDSQGEITTVAVHGGGILSTASDGKRLVMGGDDGKVVSLDAKGEVTLLATDPKRRWIDAVALHADGAFAWSAGKTATVKSGKTEEKSLEVPSTVGGLAFAPKGLRLAIAHYNGATLWFPNMAASAEFLPWAGSHHAVTFSPDNKFLVTAMHEPALHGWRLADNRHMRMTGYPGRVRSMSWSAGGKALATSGADTVILWPFGSKDGPMGKEPAMLAPLQARVSVVACHPKNDILAAGYSDGTVLMVRLEDGAEILVRRNGTPPVAALAWNAKGTLLAFADENGDGGLLELLEHHHHHH,soluble
